Experimental findings from paper PMC3985918 (Biochemistry, 2014) are described below.

In general, Km refers to the substrate concentration at which the rate is half of its maximum. Usually kcat stands for the number of substrate molecules converted per active site and unit of time at saturation.

Data set [1] deals with T1, TylM1 (Streptomyces fradiae, UniProt P95748).
T1 sequence (P95748 2-255): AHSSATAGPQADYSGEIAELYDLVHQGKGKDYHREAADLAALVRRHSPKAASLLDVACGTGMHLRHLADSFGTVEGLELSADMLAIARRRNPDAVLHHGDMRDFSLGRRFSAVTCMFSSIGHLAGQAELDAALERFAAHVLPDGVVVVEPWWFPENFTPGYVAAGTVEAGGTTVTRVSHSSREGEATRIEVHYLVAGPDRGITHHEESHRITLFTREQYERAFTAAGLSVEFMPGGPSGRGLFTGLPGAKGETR
Nature of the data set: X-ray crystal structure, […] Å. Format: binding. The conditions noted are these: complex with SAH; active site.

For data set [2], the target named is T1, TylM1. The data set is described as follows: X-ray crystal structure, […] Å. The conditions noted are these: complex with SAH; active site. Format: binding. The source holds these as a separate data set.
Substrate in data set [3]: Cc1cn([C@H]2C[C@H](O)[C@@H](COP(=O)(O)OP(=O)(O)O[C@H]3O[C@H](C)[C@@H](O)[C@H](N)[C@H]3O)O2)c(=O)[nH]c1=O
Nature of the data set: purified protein. The conditions noted are these: methyl donor SAM.

Substrate in data set [4]: Cc1cn([C@H]2C[C@H](O)[C@@H](COP(=O)(O)OP(=O)(O)O[C@H]3O[C@H](C)[C@H](O)[C@H](N)[C@H]3O)O2)c(=O)[nH]c1=O
The data set is described as follows: purified protein. The following applies: methyl donor SAM.

`Cc1cn([C@H]2C[C@H](O)[C@@H](COP(=O)(O)OP(=O)(O)O[C@H]3O[C@H](C)[C@@H](O)[C@H](N(C)C)[C@H]3O)O2)c(=O)[nH]c1=O` [dTDP-mycaminose]: the “X-ray crystal structure, 1.6 Å” value in data set [1] is “The first structure determined for this investigation was that of TylM1 in complex with SAH”.

In the case of `CN[C@H]1[C@@H](O)[C@@H](C)O[C@H](OP(=O)(O)OP(=O)(O)OC[C@H]2O[C@@H](n3cc(C)c(=O)[nH]c3=O)C[C@@H]2O)[C@@H]1O` [dTDP-3-N-methylamino-3,6-dideoxygalactose], in data set [2], the “X-ray crystal structure, 2.2 Å” value was “enzyme in complex with SAH and dTDP-3-N-methylamino-3,6-dideoxygalactose”.

B1: TylM1 (Streptomyces fradiae) (protein)
chain: AHSSATAGPQADYSGEIAELYDLVHQGKGKDYHREAADLAALVRRHSPKAASLLDVACGTGMHLRHLADSFGTVEGLELSADMLAIARRRNPDAVLHHGDMRDFSLGRRFSAVTCMFSSIGHLAGQAELDAALERFAAHVLPDGVVVVEPWWFPENFTPGYVAAGTVEAGGTTVTRVSHSSREGEATRIEVHYLVAGPDRGITHHEESHRITLFTREQYERAFTAAGLSVEFMPGGPSGRGLFTGLPGAKGETR
Regarding B1, the Km is 79 ± 15 µM in data set [3] and 1540 ± 80 µM in data set [4]. In addition, the figures for the kcat in data set [3] and in data set [4] were 0.75 ± 0.09 s⁻¹ and 0.61 ± 0.07 s⁻¹, respectively.
